Results: US20090263375A1 (WISCONSIN ALUMNI RESEARCH FOUNDATION, published 2009)

How the values were obtained:
[1] = target: T1, Flag-Star-PAP (full length) (human, UniProt Q9H6E5 1-874); experiment: FLAG affinity purification from HEK 293 cells, western blot
T1 construct: Expressed in HEK 293 cells and purified on anti-FLAG M2 resin together with its associated complex; also called Flag tagged Star-PAP; full-length Star-PAP; not shown: FLAG tag
T1 sequence: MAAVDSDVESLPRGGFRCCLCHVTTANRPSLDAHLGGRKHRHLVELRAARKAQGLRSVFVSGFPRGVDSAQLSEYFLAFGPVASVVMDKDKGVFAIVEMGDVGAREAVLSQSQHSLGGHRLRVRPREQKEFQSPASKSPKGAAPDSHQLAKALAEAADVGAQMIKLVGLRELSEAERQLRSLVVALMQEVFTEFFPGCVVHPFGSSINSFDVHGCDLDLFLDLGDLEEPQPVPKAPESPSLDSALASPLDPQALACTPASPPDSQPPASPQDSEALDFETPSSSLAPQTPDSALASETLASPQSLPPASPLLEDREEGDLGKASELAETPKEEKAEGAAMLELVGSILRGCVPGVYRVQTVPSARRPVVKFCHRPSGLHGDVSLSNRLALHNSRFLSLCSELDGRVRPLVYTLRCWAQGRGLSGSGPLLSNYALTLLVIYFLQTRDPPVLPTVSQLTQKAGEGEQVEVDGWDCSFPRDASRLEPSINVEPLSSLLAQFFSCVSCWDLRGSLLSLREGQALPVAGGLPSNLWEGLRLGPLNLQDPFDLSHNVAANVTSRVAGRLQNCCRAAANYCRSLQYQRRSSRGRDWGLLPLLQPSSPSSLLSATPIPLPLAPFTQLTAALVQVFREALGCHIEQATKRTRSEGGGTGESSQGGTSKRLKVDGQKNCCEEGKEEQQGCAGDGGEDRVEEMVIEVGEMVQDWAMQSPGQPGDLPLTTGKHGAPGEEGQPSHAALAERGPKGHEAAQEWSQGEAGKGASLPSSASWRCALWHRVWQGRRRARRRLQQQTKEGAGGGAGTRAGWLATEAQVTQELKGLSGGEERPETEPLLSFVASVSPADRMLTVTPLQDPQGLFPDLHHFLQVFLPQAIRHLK
Protocol: (§1) Affinity purification of Flag-Star-PAP and Flag-PAPα and their associated complex of proteins in parallel allowed a comparison of the complexes formed by Star-PAP and PAPα in more detail. Flag tagged Star-PAP and PAPα were purified from HEK 293 cells stably expressing Flag-Star-PAP or Flag-PAPα (following manufacturer's instructions; Sigma-Aldrich) and the presence of endogenous symplekin, CPSF¹⁰⁰, CPSF⁷³, CstF⁶⁴, RNA Pol II, Sm protein (Y12) and PIPKIα was assessed by western blotting. Like Flag-PAPα, Flag-Star-PAP associates with symplekin, CPSF¹⁰⁰ and CPSF⁷³, further confirmation that Star-PAP may function in an mRNA polyadenylation complex (FIG. 7). Also detected with both PAPs was a faster migrating form of RNA Pol II and Sm protein (Y-12), a component of the spliceosome, which is consistent with reports that the machinery for splicing and polyadenylation are coupled.

[2] = target: T2, Flag-PAPα (canonical poly(A) polymerase) (Homo sapiens (Human), UniProt P51003 1-745, limits assumed); experiment: as above
T2 construct: not shown: FLAG tag
T2 sequence (P51003 whole entry): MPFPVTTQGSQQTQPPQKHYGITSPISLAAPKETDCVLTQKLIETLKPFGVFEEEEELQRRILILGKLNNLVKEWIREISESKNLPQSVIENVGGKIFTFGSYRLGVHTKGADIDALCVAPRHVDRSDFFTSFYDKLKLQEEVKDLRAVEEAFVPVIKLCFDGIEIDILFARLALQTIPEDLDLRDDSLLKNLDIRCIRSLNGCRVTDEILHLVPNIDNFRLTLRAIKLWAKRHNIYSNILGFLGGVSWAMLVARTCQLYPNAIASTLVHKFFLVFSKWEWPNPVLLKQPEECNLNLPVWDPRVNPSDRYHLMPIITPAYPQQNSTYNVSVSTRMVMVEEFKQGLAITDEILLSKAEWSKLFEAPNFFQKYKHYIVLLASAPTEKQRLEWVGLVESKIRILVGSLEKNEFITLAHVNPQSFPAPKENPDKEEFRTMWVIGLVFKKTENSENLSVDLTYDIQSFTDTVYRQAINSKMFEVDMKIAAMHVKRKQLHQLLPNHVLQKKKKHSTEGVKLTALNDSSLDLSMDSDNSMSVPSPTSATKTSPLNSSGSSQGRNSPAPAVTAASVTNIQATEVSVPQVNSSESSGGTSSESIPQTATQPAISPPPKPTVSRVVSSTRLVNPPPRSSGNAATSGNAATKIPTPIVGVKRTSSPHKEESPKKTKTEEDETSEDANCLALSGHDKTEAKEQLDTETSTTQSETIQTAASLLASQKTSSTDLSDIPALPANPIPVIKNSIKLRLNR
Protocol: as §1

B1: CPSF-100 (Cleavage and Polyadenylation Specificity Factor subunit 100) (other, human, UniProt Q9P2I0 1-782, looked up)
chain: MTSIIKLTTLSGVQEESALCYLLQVDEFRFLLDCGWDEHFSMDIIDSLRKHVHQIDAVLLSHPDPLHLGALPYAVGKLGLNCAIYATIPVYKMGQMFMYDLYQSRHNTEDFTLFTLDDVDAAFDKIQQLKFSQIVNLKGKGHGLSITPLPAGHMIGGTIWKIVKDGEEEIVYAVDFNHKREIHLNGCSLEMLSRPSLLITDSFNATYVQPRRKQRDEQLLTNVLETLRGDGNVLIAVDTAGRVLELAQLLDQIWRTKDAGLGVYSLALLNNVSYNVVEFSKSQVEWMSDKLMRCFEDKRNNPFQFRHLSLCHGLSDLARVPSPKVVLASQPDLECGFSRDLFIQWCQDPKNSIILTYRTTPGTLARFLIDNPSEKITEIELRKRVKLEGKELEEYLEKEKLKKEAAKKLEQSKEADIDSSDESDIEEDIDQPSAHKTKHDLMMKGEGSRKGSFFKQAKKSYPMFPAPEERIKWDEYGEIIKPEDFLVPELQATEEEKSKLESGLTNGDEPMDQDLSDVPTKCISTTESIEIKARVTYIDYEGRSDGDSIKKIINQMKPRQLIIVHGPPEASQDLAECCRAFGGKDIKVYMPKLHETVDATSETHIYQVRLKDSLVSSLQFCKAKDAELAWIDGVLDMRVSKVDTGVILEEGELKDDGEDSEMQVEAPSDSSVIAQQKAMKSLFGDDEKETGEESEIIPTLEPLPPHEVPGHQSVFMNEPRLSDFKQVLLREGIQAEFVGGVLVCNNQVAVRRTETGRIGLEGCLCQDFYRIRDLLYEQYAIV
notes: also called SPSF-100
B1: binds [1].

B2: CstF-64 (Cleavage-Stimulatory Factor subunit 64) (other, human, UniProt P33240 1-577, looked up)
chain: MAGLTVRDPAVDRSLRSVFVGNIPYEATEEQLKDIFSEVGPVVSFRLVYDRETGKPKGYGFCEYQDQETALSAMRNLNGREFSGRALRVDNAASEKNKEELKSLGTGAPVIESPYGETISPEDAPESISKAVASLPPEQMFELMKQMKLCVQNSPQEARNMLLQNPQLAYALLQAQVVMRIVDPEIALKILHRQTNIPTLIAGNPQPVHGAGPGSGSNVSMNQQNPQAPQAQSLGGMHVNGAPPLMQASMQGGVPAPGQMPAAVTGPGPGSLAPGGGMQAQVGMPGSGPVSMERGQVPMQDPRAAMQRGSLPANVPTPRGLLGDAPNDPRGGTLLSVTGEVEPRGYLGPPHQGPPMHHVPGHESRGPPPHELRGGPLPEPRPLMAEPRGPMLDQRGPPLDGRGGRDPRGIDARGMEARAMEARGLDARGLEARAMEARAMEARAMEARAMEARAMEVRGMEARGMDTRGPVPGPRGPIPSGMQGPSPINMGAVVPQGSRQVPVMQGTGMQGASIQGGSQPGGFSPGQNQVTPQDHEKAALIMQVLQLTADQIAMLPPEQRQSILILKEQIQKSTGAP
B2: binds [1]; no binding [2].

B3: CPSF-73 (Cleavage and Polyadenylation Specificity Factor subunit 73) (enzyme, human, UniProt Q9UKF6 2-684, looked up)
chain: SAIPAEESDQLLIRPLGAGQEVGRSCIILEFKGRKIMLDCGIHPGLEGMDALPYIDLIDPAEIDLLLISHFHLDHCGALPWFLQKTSFKGRTFMTHATKAIYRWLLSDYVKVSNISADDMLYTETDLEESMDKIETINFHEVKEVAGIKFWCYHAGHVLGAAMFMIEIAGVKLLYTGDFSRQEDRHLMAAEIPNIKPDILIIESTYGTHIHEKREEREARFCNTVHDIVNRGGRGLIPVFALGRAQELLLILDEYWQNHPELHDIPIYYASSLAKKCMAVYQTYVNAMNDKIRKQININNPFVFKHISNLKSMDHFDDIGPSVVMASPGMMQSGLSRELFESWCTDKRNGVIIAGYCVEGTLAKHIMSEPEEITTMSGQKLPLKMSVDYISFSAHTDYQQTSEFIRALKPPHVILVHGEQNEMARLKAALIREYEDNDEVHIEVHNPRNTEAVTLNFRGEKLAKVMGFLADKKPEQGQRVSGILVKRNFNYHILSPCDLSNYTDLAMSTVKQTQAIPYTGPFNLLCYQLQKLTGDVEELEIQEKPALKVFKNITVIQEPGMVVLEWLANPSNDMYADTVTTVILEVQSNPKIRKGAVQKVSKKLEMHVYSKRLEIMLQDIFGEDCVSVKDDSILSVTVDGKTANLNLETRTVECEEGSEDDESLREMVELAAQRLYEALTPVH
notes: also called CSPF-73
B3: binds [1]; binds [2].
